Experimental data from the supplement of paper PMC10567573.

B1: SNAP91 (parent)
chain: FAQPMMRPPFGAAAVPGTQLSPSP

Variants of: B1
Assay: protein stability index of a GFP-peptide fusion (GPS, HEK-293T) (PSI 1-6); higher = more stable
Conditions: c terminus: a fixed tail appended
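Also: lentivirally expressed fusions sorted by FACS into six bins by GFP to DsRed ratio, PSI derived from sequencing read proportions per bin multiplied by bin number.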

| Variant | protein stability index |
| --- | --- |
| Q19W | 2.4 |
| Q19F | 2.64 |
| Q19D | 3.22 |
| Q19T | 2.87 |
| Q19L | 2.5 |
| Q19G | 2.96 |
| Q19K | 2.41 |
| Q19N | 3.17 |
| Q19E | 2.72 |
| Q19S | 2.84 |
| Q19I | 2.87 |
| P24H | 2.96 |
| P24E | 3.45 |
| P24D | 3.4 |
| P24M | 3.23 |
| P24A | 3.11 |
| P24R | 2.87 |
| P24Q | 3.32 |
| P24C | 2.93 |
| P24I | 3.2 |
| P24S | 3.1 |
| P24N | 2.58 |
| P24G | 3.22 |
| P24F | 2.65 |

| Variant | protein stability index |
| --- | --- |
| P24K | 3.83 |
| P24T | 3.25 |
| P16E | 2.38 |
| P16Y | 2.15 |
| P16G | 2.81 |
| P16F | 2.53 |
| P16A | 3.29 |
| P16N | 3.2 |
| P16S | 3.02 |
| P16V | 3.33 |
| P16D | 2.99 |
| P16T | 3.37 |
| P16H | 2.71 |
| P16K | 3.25 |
| P16I | 2.22 |
| P16L | 2.74 |
| P16R | 3.36 |
| T18W | 2.29 |
| T18L | 2.95 |
| T18M | 2.95 |
| T18G | 2.72 |
| T18R | 3.41 |
| T18F | 2.89 |
| T18E | 2.6 |

| Variant | protein stability index |
| --- | --- |
| T18V | 2.76 |
| T18Y | 2.58 |
| T18Q | 3.15 |
| T18K | 2.75 |
| T18A | 3.1 |
| S21K | 2.95 |
| S21R | 3.12 |
| S21C | 2.86 |
| S21V | 3.44 |
| S21P | 3.11 |
| S21M | 2.85 |
| S21E | 2.98 |
| S21G | 3.28 |
| S21D | 2.63 |
| S21I | 3.48 |
| S21H | 3.16 |
| S21A | 3.49 |
| S21W | 2.89 |
| S21Q | 3.29 |
| R7N | 2.92 |
| R7Y | 1.89 |
| R7F | 1.55 |
| R7I | 2.4 |
| R7C | 2.3 |

| Variant | protein stability index |
| --- | --- |
| R7P | 2.87 |
| R7K | 3.34 |
| R7L | 2.38 |
| R7V | 2.49 |
| R7Q | 2.62 |
| A14K | 3.21 |
| A14W | 1.81 |
| A14M | 3.03 |
| A14Y | 3.04 |
| A14P | 3.08 |
| A14T | 2.45 |
| A14F | 2.65 |
| A14D | 2.79 |
| A14G | 2.8 |
| A14L | 2.78 |
| A14N | 3.17 |
| A14E | 3.01 |
| P8A | 3.82 |
| P8M | 3.01 |
| P8C | 2.39 |
| P8D | 3.5 |
| P8W | 2.64 |
| P8Y | 2.79 |
| P8F | 2.97 |

| Variant | protein stability index |
| --- | --- |
| F1N | 4.53 |
| F1T | 4.53 |
| F1C | 3.3 |
| F1H | 4.02 |
| F1E | 4.68 |
| F1S | 4.11 |
| F1Q | 4.66 |
| F1L | 3.59 |
| F1G | 4.5 |
| F1W | 3.41 |
| F1A | 4.67 |
| F1K | 4.28 |
| L20F | 2.71 |
| L20D | 2.98 |
| L20I | 3.02 |
| L20Y | 3.08 |
| L20C | 3.7 |
| L20G | 3.6 |
| L20M | 2.92 |
| L20R | 3.51 |
| L20H | 3.43 |
| L20S | 3.33 |
| L20T | 3.56 |
| L20W | 2.73 |

| Variant | protein stability index |
| --- | --- |
| L20A | 3.28 |
| L20Q | 4.04 |
| L20V | 2.85 |
| L20K | 3.29 |
| L20P | 3.2 |
| G11A | 3.74 |
| G11W | 1.88 |
| G11N | 3.67 |
| G11L | 3.04 |
| G11C | 2.96 |
| G11I | 2.73 |
| G11M | 3.29 |
| G11Q | 4.35 |
| G11Y | 2.91 |
| G11F | 2.86 |
| G11D | 3.7 |
| G11T | 3.44 |
| G11V | 3.35 |
| G17L | 3.46 |
| G17I | 2.88 |
| G17V | 2.85 |
| G17A | 3.11 |
| G17D | 3.04 |
| G17E | 2.71 |

| Variant | protein stability index |
| --- | --- |
| G17T | 3.24 |
| G17C | 2.71 |
| G17Y | 2.74 |
| G17N | 3.44 |
| G17K | 3.17 |
| G17F | 2.69 |
| G17S | 2.81 |
| P9V | 3.26 |
| P9F | 1.63 |
| P9I | 2.57 |
| P9E | 3.94 |
| P9W | 1.91 |
| P9R | 3.77 |
| P9M | 3.1 |
| P9K | 2.71 |
| P9C | 3.06 |
| P9S | 3.75 |
| P9T | 3.59 |
| P9H | 3.52 |
| P9N | 3.14 |
| P9L | 1.91 |
| P9G | 3.45 |
| P9Y | 2.34 |
